To fix the notation:
T1: human ferroportin (SLC40A1) fused in frame with the GFP protein, stably expressed in HEK293 cells (human, UniProt Q9NP59 1-571)
T1 sequence (looked up): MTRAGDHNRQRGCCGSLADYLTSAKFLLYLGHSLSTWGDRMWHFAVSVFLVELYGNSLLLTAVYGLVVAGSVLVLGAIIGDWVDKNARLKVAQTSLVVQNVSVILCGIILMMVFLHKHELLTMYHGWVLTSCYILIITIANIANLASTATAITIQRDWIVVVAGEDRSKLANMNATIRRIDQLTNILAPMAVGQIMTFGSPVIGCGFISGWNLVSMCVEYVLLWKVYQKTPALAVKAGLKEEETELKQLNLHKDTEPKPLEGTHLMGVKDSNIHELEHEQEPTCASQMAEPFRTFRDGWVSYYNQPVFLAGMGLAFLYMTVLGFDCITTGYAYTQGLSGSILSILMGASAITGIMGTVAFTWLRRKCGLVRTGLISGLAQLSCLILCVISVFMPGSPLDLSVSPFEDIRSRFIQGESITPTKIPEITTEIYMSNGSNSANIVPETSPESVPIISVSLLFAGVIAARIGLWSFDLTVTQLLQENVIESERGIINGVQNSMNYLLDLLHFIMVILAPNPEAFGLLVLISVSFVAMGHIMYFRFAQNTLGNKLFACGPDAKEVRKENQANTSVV

B1: Compd ID 210 (peptide)
peptide: Isovaleryl-DTHFPCIK([γGlu-Palmitoyl])FCK-NH2
modifications: disulfide 6-10
SMILES: CCCCCCCCCCCCCCCC(=O)N[C@@H](CCC(=O)NCCCC[C@@H]1NC(=O)[C@H]([C@@H](C)CC)NC(=O)[C@@H](NC(=O)[C@@H]2CCCN2C(=O)[C@H](Cc2ccccc2)NC(=O)[C@H](Cc2c[nH]cn2)NC(=O)[C@@H](NC(=O)[C@H](CC(=O)O)NC(=O)CC(C)C)[C@@H](C)O)CSSC[C@@H](C(=O)N[C@@H](CCCCN)C(N)=O)NC(=O)[C@H](Cc2ccccc2)NC1=O)C(=O)O
B2: Compd ID 207 (peptide)
peptide: Isovaleryl-DTHFPCIK([γGlu-Palmitoyl])FC-NH2
modifications: disulfide 6-10
SMILES: CCCCCCCCCCCCCCCC(=O)N[C@@H](CCC(=O)NCCCC[C@@H]1NC(=O)[C@H]([C@@H](C)CC)NC(=O)[C@@H](NC(=O)[C@@H]2CCCN2C(=O)[C@H](Cc2ccccc2)NC(=O)[C@H](Cc2c[nH]cn2)NC(=O)[C@@H](NC(=O)[C@H](CC(=O)O)NC(=O)CC(C)C)[C@@H](C)O)CSSC[C@@H](C(N)=O)NC(=O)[C@H](Cc2ccccc2)NC1=O)C(=O)O
B3: Compd ID 215 (peptide)
peptide: Isovaleryl-DTHFPCIK([γGlu-Palmitoyl])[αMeF]C-NH2
modifications: disulfide 6-10
SMILES: CCCCCCCCCCCCCCCC(=O)N[C@@H](CCC(=O)NCCCC[C@@H]1NC(=O)[C@H]([C@@H](C)CC)NC(=O)[C@@H](NC(=O)[C@@H]2CCCN2C(=O)[C@H](Cc2ccccc2)NC(=O)[C@H](Cc2c[nH]cn2)NC(=O)[C@@H](NC(=O)[C@H](CC(=O)O)NC(=O)CC(C)C)[C@@H](C)O)CSSC[C@@H](C(N)=O)NC(=O)[C@](C)(Cc2ccccc2)NC1=O)C(=O)O
B4: Compd ID 214 (peptide)
peptide: Isovaleryl-DTHFPCIK([γGlu-Palmitoyl])[β3hF]C-NH2
modifications: disulfide 6-10
SMILES: CCCCCCCCCCCCCCCC(=O)N[C@@H](CCC(=O)NCCCC[C@@H]1NC(=O)[C@H]([C@@H](C)CC)NC(=O)[C@@H](NC(=O)[C@@H]2CCCN2C(=O)[C@H](Cc2ccccc2)NC(=O)[C@H](Cc2c[nH]cn2)NC(=O)[C@@H](NC(=O)[C@H](CC(=O)O)NC(=O)CC(C)C)[C@@H](C)O)CSSC[C@@H](C(N)=O)NC(=O)C[C@H](Cc2ccccc2)NC1=O)C(=O)O
B5: Compd ID 206 (peptide)
peptide: Isovaleryl-DTHFPCIK([γGlu-Palmitoyl])FEC-NH2
modifications: disulfide 6-11
SMILES: CCCCCCCCCCCCCCCC(=O)N[C@@H](CCC(=O)NCCCC[C@@H]1NC(=O)[C@H]([C@@H](C)CC)NC(=O)[C@@H](NC(=O)[C@@H]2CCCN2C(=O)[C@H](Cc2ccccc2)NC(=O)[C@H](Cc2c[nH]cn2)NC(=O)[C@@H](NC(=O)[C@H](CC(=O)O)NC(=O)CC(C)C)[C@@H](C)O)CSSC[C@@H](C(N)=O)NC(=O)[C@H](CCC(=O)O)NC(=O)[C@H](Cc2ccccc2)NC1=O)C(=O)O
B6: Compd ID 212 (peptide)
peptide: Isovaleryl-DTHFPCI[dK]([γGlu-Palmitoyl])[NMeF]GC-NH2
modifications: disulfide 6-11
SMILES: CCCCCCCCCCCCCCCC(=O)N[C@@H](CCC(=O)NCCCC[C@H]1NC(=O)[C@H]([C@@H](C)CC)NC(=O)[C@@H](NC(=O)[C@@H]2CCCN2C(=O)[C@H](Cc2ccccc2)NC(=O)[C@H](Cc2c[nH]cn2)NC(=O)[C@@H](NC(=O)[C@H](CC(=O)O)NC(=O)CC(C)C)[C@@H](C)O)CSSC[C@@H](C(N)=O)NC(=O)CNC(=O)[C@H](Cc2ccccc2)N(C)C1=O)C(=O)O

Starred links: 1 amine or outer side, 2 acyl side, 3 side chain; linkers in the order of their positions; H or OH if unused. Positions of bridges follow the written chain, without caps; N, C: chain ends. Non-standard residues stand in square brackets, D forms with d. Groups on a side chain read outwards from the residue. *: point of attachment. γGlu = O=C(O)[C@H](CCC(=O)[*:2])N[*:1]; Palmitoyl = CCCCCCCCCCCCCCCC(=O)*; NMeF = CN[C@@H](Cc1ccccc1)C(=O)O; αMeF = C[C@](N)(Cc1ccccc1)C(=O)O; β3hF = N[C@H](CC(=O)O)Cc1ccccc1; Isovaleryl = CC(C)CC(=O)*

For the experiment, the target named is T1, human ferroportin (SLC40A1) fused in …. Kind of experiment: cell-based or functional assay.
As for B1, the “FPN IC50” value was 60 nM.
With B2, the “FPN IC50” value stood at 64 nM.
With B3 the figure was 96 nM; with B4, 36 nM.
Next, B5: 267 nM; B6: 403 nM.

These data come from patent publication US20200361992A1 (PROTAGONIST THERAPEUTICS, published 2020).
